Data from paper PMC6314544.

Legend:
hLC3-KCK-his6 (human) [1] = target: hLC3-KCK-his6 (human) (UniProt Q9GZQ8); assay: FRET or BRET; various concentrations of Alexa Fluor 546-labeled NT JMY added to 200 nM Alexa Fluor 647-labeled LC3; 100 mM KCl, 20 mM Hepes pH 7.4
hLC3-KCK-his6 (human) [2] = target: hLC3-KCK-his6 (human) (UniProt Q9GZQ8); assay: AUC; sedimentation equilibrium of purified LC3 in solution; dimer to monomers

Row | Kd (hLC3-KCK-his6 (human) [1]) [µM] | Kd (hLC3-KCK-his6 (human) [2]) [µM] | Substance
1 | 0.055 |  | SNAP-JMY (1-314), N-terminal region of JMY (from UniProt Q8N9B5 1-314) (domain or fragment)
2 |  | > 700 | hLC3-KCK-his6 (from UniProt Q9GZQ8 1-120) (natural protein)
